Assay [1] addresses T1, ScPex1^WT (Pex1-FLAG), S. cerevisiae (S. cerevisiae, UniProt P24004 1-1043).
T1 sequence: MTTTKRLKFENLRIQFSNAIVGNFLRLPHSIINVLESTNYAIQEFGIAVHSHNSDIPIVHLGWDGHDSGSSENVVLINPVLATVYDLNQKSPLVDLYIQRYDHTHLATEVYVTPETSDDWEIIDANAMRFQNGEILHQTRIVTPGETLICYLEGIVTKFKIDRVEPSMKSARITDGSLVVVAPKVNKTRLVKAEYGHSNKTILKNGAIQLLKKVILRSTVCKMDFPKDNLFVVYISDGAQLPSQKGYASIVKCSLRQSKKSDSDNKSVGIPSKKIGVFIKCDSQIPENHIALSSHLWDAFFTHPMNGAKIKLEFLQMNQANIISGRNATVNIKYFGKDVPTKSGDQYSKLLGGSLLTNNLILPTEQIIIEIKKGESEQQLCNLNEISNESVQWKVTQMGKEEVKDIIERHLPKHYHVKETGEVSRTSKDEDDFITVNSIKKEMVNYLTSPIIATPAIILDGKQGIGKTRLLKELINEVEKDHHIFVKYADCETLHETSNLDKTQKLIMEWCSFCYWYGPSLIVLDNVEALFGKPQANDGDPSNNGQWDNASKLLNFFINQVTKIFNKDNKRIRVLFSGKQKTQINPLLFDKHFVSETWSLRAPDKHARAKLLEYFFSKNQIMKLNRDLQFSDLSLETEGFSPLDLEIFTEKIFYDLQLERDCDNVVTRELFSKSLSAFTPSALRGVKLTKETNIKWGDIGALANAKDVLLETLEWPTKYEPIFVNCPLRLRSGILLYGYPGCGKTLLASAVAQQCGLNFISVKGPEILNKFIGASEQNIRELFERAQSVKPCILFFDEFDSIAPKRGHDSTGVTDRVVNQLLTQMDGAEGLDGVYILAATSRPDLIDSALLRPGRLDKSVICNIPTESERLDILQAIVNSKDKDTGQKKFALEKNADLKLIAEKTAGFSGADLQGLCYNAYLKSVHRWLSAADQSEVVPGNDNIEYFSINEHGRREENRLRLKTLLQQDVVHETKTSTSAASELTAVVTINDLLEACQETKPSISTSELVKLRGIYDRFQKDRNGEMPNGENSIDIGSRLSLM
Kind of assay: SEC.

Assay [2] concerns the target T2, ScPex1^G700D (Pex1-FLAG G700D), S. cerevisiae (S. cerevisiae, UniProt P24004 1-1043, G700D).
T2 sequence: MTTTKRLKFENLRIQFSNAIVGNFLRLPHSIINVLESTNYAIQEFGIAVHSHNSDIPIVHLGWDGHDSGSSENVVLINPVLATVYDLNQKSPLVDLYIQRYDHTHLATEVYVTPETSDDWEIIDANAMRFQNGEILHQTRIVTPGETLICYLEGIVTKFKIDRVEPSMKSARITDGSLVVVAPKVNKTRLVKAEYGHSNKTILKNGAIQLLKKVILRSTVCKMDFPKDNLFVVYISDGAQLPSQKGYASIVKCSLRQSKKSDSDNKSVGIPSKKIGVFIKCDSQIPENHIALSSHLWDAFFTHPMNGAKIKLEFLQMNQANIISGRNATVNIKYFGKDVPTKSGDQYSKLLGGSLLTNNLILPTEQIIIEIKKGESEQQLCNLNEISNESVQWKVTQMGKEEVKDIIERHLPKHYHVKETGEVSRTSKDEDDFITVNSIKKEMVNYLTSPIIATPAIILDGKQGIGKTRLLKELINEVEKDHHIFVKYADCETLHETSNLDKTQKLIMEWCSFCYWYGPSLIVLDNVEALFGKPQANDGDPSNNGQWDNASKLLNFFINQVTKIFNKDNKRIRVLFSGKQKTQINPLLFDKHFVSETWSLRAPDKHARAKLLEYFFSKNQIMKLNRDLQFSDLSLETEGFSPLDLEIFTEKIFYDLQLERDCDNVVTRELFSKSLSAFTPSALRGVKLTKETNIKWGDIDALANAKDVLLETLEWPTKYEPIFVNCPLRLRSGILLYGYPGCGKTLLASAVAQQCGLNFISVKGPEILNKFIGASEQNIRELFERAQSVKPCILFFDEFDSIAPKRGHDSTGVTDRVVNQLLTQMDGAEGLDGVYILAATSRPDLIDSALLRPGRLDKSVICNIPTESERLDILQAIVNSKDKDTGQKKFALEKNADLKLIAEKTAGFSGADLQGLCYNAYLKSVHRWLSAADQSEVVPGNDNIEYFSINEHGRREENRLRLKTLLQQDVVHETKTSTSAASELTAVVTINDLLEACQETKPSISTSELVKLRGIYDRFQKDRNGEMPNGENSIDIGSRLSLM
Briefly: SEC. Background: In gel filtration, larger molecules generally elute earlier.

The values that follow come from article PMC11661142 (bioRxiv, 2024).

B1: ScPex6 (His-Pex6), S. cerevisiae (natural protein)
chain: MKASLTFSLSGIYAPCSISRDIYLEYGDKKAECLYGTIRLPQYGPGCTPGKIVHCVLDDSLPFCSIVVPSKLFGFMPTQPTMDFCYFEPILDNVVPVLDSVTFLINEQLYSKLMDLPQEMQQIQFLHYKYNINSMETVVHSRDILTSGLCQILNCSPFPQGLVDFTETQLILVNDTEQKLSALKYANEDEEYALPKIGTNSALSIDLESLPCTISRDLLRPAPHINDDNSIYAFTDAETLLRLDVTSGSFITVSNMGCVRLVKLFVLLLPNGFKKRTIYAPPKIIASFPDCSVVTISKSNIGHTDIPIANQVFISRVGGWLQSQKCFQNIILTTLKKFFSESKRILCQNDLIPIAFDSSMADLNIAEENDESDDEDELGQYYKNDSLVWFFVTSAELDCFSKDNSHFIIDPNRTKLITTNITNRRPLPLSRSNLQRYYGFAETFYYDLHIFPYVRQLVNILETSFNCSQRGITLNASVLLHSTTNNVGKATMVRFASKYLGIHLLEIDCLSLTSNSRQLDSTSKIIGYIRAKCENVLPYASPAVIFLAHLDSILLDVNANQDPEAIKLQKSINFEMSKLLDDFTFKFPGTTFVGSVNNIDNVPSSFRSHMRFEILVPVPSEAQRLRIFQWYLSSHELNRDVQQKVPVSYMDNISFSSLSSYSAGLTPLDIKSIVETARMTATARFYQESKKCGWLPQSILITQEDLSKATSKARNEFSVSIGAPQIPNVTWDDIGGIDFVKGEILDTIDMPLKHPELFTSGMKKRSGILFYGPPGTGKTLMAKAIATNFSLNFFSVKGPELLNMYIGESEANVRRVFQKAREAKPCVIFFDEIDSVAPKRGNQGDSGGVMDRIVSQLLAELDGMSTDADGVFVIGATNRPDLLDEALLRPGRFDKLLYLGIPDTDTKQLNILEALTRKFVLDNDVKLIELAKLCPFNYTGADFYALCSDAMLNAMSRIARMVEKKVSQHNELTGENISTRRWFDKIATKEDTKVVVKMEDFLKAQEQLTPSVSRAELNHYEAVRANFEGA
For B1, the binding result in assay [1] and in assay [2] was “binds” in each case.
